Experimental data published in US20260226131A1 (SHANGHAI INSTITUTE OF MATERIA MEDICA CHINESE ACADEMY OF …, published 2026).
One block for each molecule: values may come before it.

Assays:
[1] = biological target: IGF-1R-His tag (Sino Biological), human insulin-like growth factor 1 receptor (human) (UniProt P08069); experiment: BLI (Octet), IGF-1R-His captured on Ni-NTA probe, 1:1 fit
[2] = biological target: T1, human insulin receptor extracellular domain protein (hIRB-ECD, Sino Biological Inc.) (human, UniProt P06213 28-956); experiment: ELISA, coated hIRB-ECD, anti-human IgG HRP detection
T1 construct: extracellular domain; Bought protein coated on the ELISA plate

[3] = biological target: T2, IGF-1R-His tag (Sino Biological), human insulin-like growth factor 1 receptor (human, UniProt P08069 31-932, limits assumed); experiment: BLI (Octet), IGF-1R-His captured on Ni-NTA probe, 1:1 fit
T2 construct: Bought recombinant protein captured on Ni-NTA probes; also called His-tagged IGF-1R protein; not shown: His tag

[4] = biological target: T3, human insulin receptor isoform A (hIRA), membranes of CHO cells overexpressing hIRA (human, UniProt P06213-2 28-1370); experiment: competition with [125I]-insulin, CHO-hIRA membranes (SPA)
T3 construct: whole, on cells; The assay used cell membrane preparations

[5] = biological target: T4, human insulin receptor isoform B (hIRB), membranes of CHO cells overexpressing hIRB (human, UniProt P06213 28-1382); experiment: competition with [125I]-insulin, CHO-hIRB membranes (SPA)
T4 construct: whole, on cells; The assay used cell membrane preparations

Molecule: glargine insulin (Lantus, Sanofi) (ligand)
Kd [1]: 764 nM
koff [1]: 0.0192 s⁻¹
kon [1]: 25100 M⁻¹ s⁻¹

B2: Insulin-Fc fusion protein of Example 6 (B16-A+A3-A+A21G) (Fc fusion)
chain: FVNQHLCGSHLVEALALVCGERGFFYTPKTGGVGGGGIAEQCCTSICSLYQLENYCGGGGGSGGGGSGGGGSGGGGSERKSSVESPPSPAPPVAGPSVFLFPPKPKDTLMISRTPEVTCVVVDVSQEDPEVQFNWYVDGVEVHNAKTKPREEQFNSTFRVVSVLTVLHQDWLNGKEYKCKVSNKGLPSSIEKTISKTKGQPREPQVYTLPPSREEMTKNQVSLTCLVKGFYPSDIAVEWESNGQPENNYKTTPPMLDSDGSFFLYSKLTVDKSRWQQGNVFSCSVMHEALHNHYTQKSLSLSLG
EC50 [2]: 445 nM

B4: Insulin-Fc fusion protein of Example 7 (B25-T+B27-E A3-A+A21G) (Fc fusion)
chain: FVNQHLCGSHLVEALYLVCGERGFTYEPKTGGVGGGGIAEQCCTSICSLYQLENYCGGGGGSGGGGSGGGGSGGGGSERKSSVESPPSPAPPVAGPSVFLFPPKPKDTLMISRTPEVTCVVVDVSQEDPEVQFNWYVDGVEVHNAKTKPREEQFNSTFRVVSVLTVLHQDWLNGKEYKCKVSNKGLPSSIEKTISKTKGQPREPQVYTLPPSREEMTKNQVSLTCLVKGFYPSDIAVEWESNGQPENNYKTTPPMLDSDGSFFLYSKLTVDKSRWQQGNVFSCSVMHEALHNHYTQKSLSLSLG
EC50 [2]: 699 nM

B5: Insulin-Fc fusion protein of Example 8 (des B27-30+A3-A+A21G) (Fc fusion)
chain: FVNQHLCGSHLVEALYLVCGERGFFYGGVGGGGIAEQCCTSICSLYQLENYCGGGGGSGGGGSGGGGSGGGGSERKSSVESPPSPAPPVAGPSVFLFPPKPKDTLMISRTPEVTCVVVDVSQEDPEVQFNWYVDGVEVHNAKTKPREEQFNSTFRVVSVLTVLHQDWLNGKEYKCKVSNKGLPSSIEKTISKTKGQPREPQVYTLPPSREEMTKNQVSLTCLVKGFYPSDIAVEWESNGQPENNYKTTPPMLDSDGSFFLYSKLTVDKSRWQQGNVFSCSVMHEALHNHYTQKSLSLSLG
EC50 [2]: 314 nM

Further lines, results first:

EC50 [2]: 160 nM
Kd [3]: 6490 nM
koff [3]: 0.00336 s⁻¹
kon [3]: 518 M⁻¹ s⁻¹
IC50 [4]: 102 nM
Maximum Receptor Binding Activity (%) Relative to RHI [4]: 78.7%
IC50 [5]: 509 nM
Maximum Receptor Binding Activity (%) Relative to RHI [5]: 74.3%
B1: Insulin-Fc fusion protein of Example 1 (B27E+A3-A+A21G) (Fc fusion)
chain: FVNQHLCGSHLVEALYLVCGERGFFYEPKTGGVGGGGIAEQCCTSICSLYQLENYCGGGGGSGGGGSGGGGSGGGGSERKSSVESPPSPAPPVAGPSVFLFPPKPKDTLMISRTPEVTCVVVDVSQEDPEVQFNWYVDGVEVHNAKTKPREEQFNSTFRVVSVLTVLHQDWLNGKEYKCKVSNKGLPSSIEKTISKTKGQPREPQVYTLPPSREEMTKNQVSLTCLVKGFYPSDIAVEWESNGQPENNYKTTPPMLDSDGSFFLYSKLTVDKSRWQQGNVFSCSVMHEALHNHYTQKSLSLSLG

EC50 [2]: 160 nM
B3: Insulin-Fc fusion protein of Example 5 (B5-A+A21G) (Fc fusion)
chain: FVNQALCGSHLVEALYLVCGERGFFYTPKTGGVGGGGIVEQCCTSICSLYQLENYCGGGGGSGGGGSGGGGSGGGGSERKSSVESPPSPAPPVAGPSVFLFPPKPKDTLMISRTPEVTCVVVDVSQEDPEVQFNWYVDGVEVHNAKTKPREEQFNSTFRVVSVLTVLHQDWLNGKEYKCKVSNKGLPSSIEKTISKTKGQPREPQVYTLPPSREEMTKNQVSLTCLVKGFYPSDIAVEWESNGQPENNYKTTPPMLDSDGSFFLYSKLTVDKSRWQQGNVFSCSVMHEALHNHYTQKSLSLSLG
